Laboratory results: patent US20220372138A1 (IOMX THERAPEUTICS, published 2022)
One block for each binder: values may come before it.

Legend:
[1] = target: T1, human IGSF11 (VSIG3) expressed on cells (human, UniProt Q5DX21 23-431); assay: IgG FACS MDA-MB-231-IGSF11
T1 sequence: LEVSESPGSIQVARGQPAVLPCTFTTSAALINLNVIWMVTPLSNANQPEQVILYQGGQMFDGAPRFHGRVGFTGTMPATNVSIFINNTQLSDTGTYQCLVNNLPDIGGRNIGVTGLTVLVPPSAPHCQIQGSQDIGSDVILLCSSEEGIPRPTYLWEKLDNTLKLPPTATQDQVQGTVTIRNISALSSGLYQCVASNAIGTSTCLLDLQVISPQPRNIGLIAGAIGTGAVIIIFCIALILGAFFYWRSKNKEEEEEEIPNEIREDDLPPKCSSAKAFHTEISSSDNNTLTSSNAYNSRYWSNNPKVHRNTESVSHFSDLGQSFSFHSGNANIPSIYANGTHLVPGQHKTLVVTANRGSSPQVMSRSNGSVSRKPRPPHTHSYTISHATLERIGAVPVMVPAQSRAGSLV
Description: (§1) Unbound antibodies were removed by washing the cells three time with FACS buffer. Bound antibodies were detected with a mouse anti-human IgG antibody conjugated with AlexaFluor647.

[2] = target: T1, human IGSF11 (VSIG3) expressed on cells; assay: IgG FACS Colo741
Description: as §1

[3] = target: T2, murine IGSF11 expressed on cells (mouse, UniProt P0C673 23-428); assay: IgG FACS MC38-IGSF11
T2 construct: MC38-IGSF11, CT26-IGSF11, MC38-wt (naturally expresses murine IGSF11)
T2 sequence: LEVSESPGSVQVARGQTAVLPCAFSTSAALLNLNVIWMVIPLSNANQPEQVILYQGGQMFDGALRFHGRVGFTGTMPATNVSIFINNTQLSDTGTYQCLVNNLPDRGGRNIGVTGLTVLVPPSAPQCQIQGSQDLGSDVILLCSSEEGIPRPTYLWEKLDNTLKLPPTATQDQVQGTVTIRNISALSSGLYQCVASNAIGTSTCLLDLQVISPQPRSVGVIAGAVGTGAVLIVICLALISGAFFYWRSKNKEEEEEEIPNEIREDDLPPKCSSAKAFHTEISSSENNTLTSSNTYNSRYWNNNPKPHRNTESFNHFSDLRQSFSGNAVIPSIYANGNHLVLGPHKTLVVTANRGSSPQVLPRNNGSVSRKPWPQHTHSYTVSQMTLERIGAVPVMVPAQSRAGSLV
Description: as §1

[4] = target: T3, extracellular domain (ECD) of human IGSF11 (VSIG3), recombinant (human, UniProt Q5DX21 23-241); assay: KinExA, Fab as CBP 80 and 800 pM, n-curve
T3 construct: biotinylated where captured on streptavidin; tags of the reagent not always stated; also called IGSF11 (ECD domain); ECD-IGSF11
T3 sequence: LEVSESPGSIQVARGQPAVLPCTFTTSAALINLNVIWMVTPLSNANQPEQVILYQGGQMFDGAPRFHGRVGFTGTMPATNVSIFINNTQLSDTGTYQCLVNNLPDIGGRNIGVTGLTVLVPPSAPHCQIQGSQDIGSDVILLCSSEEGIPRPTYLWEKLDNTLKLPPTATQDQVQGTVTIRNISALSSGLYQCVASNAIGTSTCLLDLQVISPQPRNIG
Protocol: (§2) Solution-based binding affinities were determined using the Kinetic Exclusion Assay (KinExA) 4000 system as described below, where binding partners were combined and allowed to reach equilibrium prior to measurement.
(§3) Briefly, anti-IGSF11 ABPs of the invention as Fabs were used as Constant Binding Partner (CBP) and human recombinant IGSF11 ECD was used as Titrant. After reaching equilibrium, free CBP were detected using PMMA beads coated with IGSF11 ECD or IGSF11 IgC2-domain Fc-fusion protein and an anti-human F(ab′)2 antibody conjugated with AlexaFluor647. […] The CBP was incubated with different Titrant concentrations for 16 h (or 72-90 h) to reach equilibrium. The equilibrium binding curves of different CBP concentrations were measured in duplicates and drift correction was applied. The n-curve analysis tool within the KinExA Pro Software version 4.4.26 was applied to obtain one KD value per set of binding curves by finding the best fit of a 1:1 binding model to the data.

[5] = target: T3, extracellular domain (ECD) of human …; assay: KinExA, Fab as CBP 15 pM, single binding curve
Protocol: as §2, §3

EC50 [1]: < 0.5 nM
EC50 [2]: < 0.5 nM
EC50 [3]: < 0.5 nM
B1: D-222 (IgG format) (antibody, V domains shown)
VH: EVQLVESGGGLVKPGGSLRLSCAASGFTFSHAWISWVRQAPGKGLEWVGQIKGGPGSGGTSYAEPVKGRFTISRDDSKNTLYLQMNSLKTEDTAVYYCARLGIYSGFDYWGQGTLVTVSS
VL: SYELTQPPSVSVSPGQTASITCSGDKLGDKYASWYQQKPGQSPVLVIYQDSKRPSGIPERFSGSNSGNTATLTISGTQAEDEADYYCHTYSHRPEIVVFGGGTKLTVL

Kd [4]: < 0.15 nM
B2: D-222 (Fab, KinExA constant binding partner) (Fab, V domains shown)
VH: B1 VH
VL: B1 VL
notes: Fab

Kd [5]: < 0.01 nM
B3: D-114 (Fab, KinExA constant binding partner) (Fab, V domains shown)
VH: EVQLLESGGGLVQPGGSLRLSCAASGFTFQFSALSWVRQAPGKGLEWVSAISYGGGSKYYADSVKGRFTISRDNSKNTLYLQMNSLRAEDTAVYYCARDSRDAYGVAFDLWGQGTMVTVSS
VL: ASVLTQPPSVSAAPGQKVTISCSGSSSNIGNNYVSWYQQLPGTAPKLLIYDNNKRPSGIPDRFSGSKSGTSATLGITGLQAEDEADYYCLSYKLSPGAYVFGGGTKLTVL
notes: Fab
